Test [1] deals with T1, human BMP6 (R&D Systems, Cat #507-BP) (human, UniProt P22004 375-513, limits assumed).
T1 construct: Bought protein (R&D Systems 507-BP or 507-BP/CF); also called hBMP6; hBMP-6
T1 sequence: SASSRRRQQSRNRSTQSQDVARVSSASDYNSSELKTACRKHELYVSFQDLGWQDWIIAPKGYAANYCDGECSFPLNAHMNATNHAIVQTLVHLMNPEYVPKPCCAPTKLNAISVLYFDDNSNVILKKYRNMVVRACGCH
Description: SPR (MASS-1), mAb captured on anti-human Fc, hBMP6 in solution, 37 C; calculated with kd fixed at 1.00E-05. On the procedure:
Equilibrium dissociation constants (KD values) for human and mouse BMP6 binding to purified anti-BMP6 monoclonal antibodies of this invention were determined using a real-time surface plasmon resonance (SPR) biosensor instrument, MASS-1. All binding studies were performed in 10 mM HEPES, 150 mM NaCl, 3 mM EDTA, 1 μg/mL Heparin, and 0.05% v/v Surfactant Tween-20, pH 7.4 (HBS-EHT) running buffer at 25° C. and 37° C. The HCA sensor surface was first derivatized by amine coupling the monoclonal mouse anti-human Fc antibody (GE, #BR100839) and anti-BMP6 monoclonal antibodies were individually captured. Different concentrations of human BMP6 reagents (hBMP6; R&D Systems, Cat #507-BP; 60 nM-0.94 nM; 4-fold serial dilution) or mouse BMP6 (mBMP6; R&D Systems, Cat #6325-BM; 60 nM and 15 nM) prepared in HBS-EHT running buffer were injected over the captured anti-BMP6 monoclonal antibody for 4 minutes at a flow rate of 30 μL/minute, while the dissociation of BMP6 reagent bound to captured anti-BMP6 monoclonal antibody was monitored for 10 minutes in HBS-EHT running buffer. Kinetic association (kₐ) and dissociation (kd) rate constants were determined by fitting the real-time binding sensorgrams to a 1:1 binding model with mass transport limitation using Scrubber 2.0c software. […]

For test [2], the target named is T1, human BMP6 (R&D Systems, Cat #507-BP). Briefly: competition ELISA, antibody titrated against 2.5 nM biot-hBMP6, plate-coated hHJV-hFc as competitor. On the procedure:
Experiments were carried out using the following procedure. Receptors were coated in Hank's Balanced Salt Solution (HBSS) separately at a concentration of 5 μg/mL for hHJV-hFc and […] for hActR2a-hFc on a 96-well microtiter plate overnight at 4° C. […] In other microtiter plates, a constant amount of 2.5 nM of biot-BMP6 (for HJV capture) or 1.5 nM biot-BMP6 (for ActR2a capture) protein was titrated with anti-BMP6 antibodies or isotype control antibodies ranging from 5.1 pM to 300 nM in serial dilution in HBSS with 1.0% BSA and […] heparin. These antibody-protein complexes, after a one-hour incubation, were transferred to the microtiter plate coated with hHJV-hFc or hActR2a-hFc. After two hours of incubation at room temperature, the wells were washed, and plate-bound biot-BMP6 was detected with neutravidin conjugated with horseradish peroxidase (HRP) (Thermo Scientific, Cat #31030). The plates were then developed using TMB substrate solution (BD Biosciences, Cat #555214) according to manufacturer's recommendation and absorbance at 450 nm was measured on a Victor X5 plate reader.
Data analysis was performed using a sigmoidal dose-response model within Prism™ software (GraphPad). […]

The next test deals with T2, Human BMP3b (human, UniProt P55107 369-478, limits assumed).
T2 sequence (looked up): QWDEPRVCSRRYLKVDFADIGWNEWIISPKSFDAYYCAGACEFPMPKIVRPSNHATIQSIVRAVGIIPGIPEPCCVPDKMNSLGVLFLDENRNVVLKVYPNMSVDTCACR
Briefly: BLI (Octet HTX), mAb captured on Protein A sensor, 100 nM ligand, 25 C. How it is done:
(§1) Binding cross-reactivity of anti-BMP6 monoclonal antibodies to BMP6 family members, (Human: BMP6, BMP5, BMP7, BMP8A, BMP9, BMP10, BMP12, BMP14, BMP3b, Activin A, and GDF3 and mouse: BMP6 and GDF6) was determined using a real-time Bio-Layer Interferometry (BLI) biosensor using Octet HTX instrument. All binding studies were performed in 10 mM HEPES, 150 mM NaCl, 3 mM EDTA, 1 mg/mL BSA, 50 μg/mL Heparin, and 0.05% v/v Surfactant Tween-20, pH 7.4 (HBS-EBHT) buffer at 25° C. with the plate shaking at a speed of 1000 rpm. To assess binding cross-reactivity, Protein A coated Octet biosensor (Pall ForteBio Corp., #18-5010) was first dipped in wells containing […] of anti-BMP6 monoclonal antibodies for 4 minutes followed by submerging in wells containing 100 nM of different BMP6 family members for 4 minutes. The biosensors were washed in HBS-EBHT buffer in between every step of the experiment. At the end of each cycle, the Protein A biosensor was regenerated using three alternate 5 second dips in 10 mM Glycine pH 2.0 and 10 second dip HBS-EBHT buffer. The real-time binding response was monitored during the course of the experiment and the binding response at the end of every step was recorded and tabulated as shown in Tables 8A and 8B.
(BLI is a label-free optical method that tracks binding on a fibre tip over time.)

A further test deals with T3, Human GDF3 (human, UniProt Q9NR23 251-364).
T3 sequence (looked up): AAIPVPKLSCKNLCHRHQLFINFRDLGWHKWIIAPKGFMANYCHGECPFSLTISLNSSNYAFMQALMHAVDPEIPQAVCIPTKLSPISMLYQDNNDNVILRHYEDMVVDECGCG
The description is as above. How it is done:
as §1

Substitutions are numbered along the chain they refer to.

As a reminder, the Kd is the concentration at which binding is half-saturated. One may read the IC50 as the concentration that inhibits the measured activity by half. High values mean weaker potency, low ones greater potency.

B1: H4H17871P (antibody, V domains shown)
VH: EVQLVESGGGLVQPGGSLRLSCAASGFTFNNYAMSWVRQAPGKGLEWVSAISGSGDSTYYADSVKGRFTISRDNSKNTLYLQMNSLRAEDTAVYYCAKRSRSSPFDPWGQGTLVTVSS
VL: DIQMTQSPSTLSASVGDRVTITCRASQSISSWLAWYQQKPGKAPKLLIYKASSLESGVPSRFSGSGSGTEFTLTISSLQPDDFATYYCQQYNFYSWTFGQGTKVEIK
notes: Fully human antibody; also called anti-BMP6 monoclonal antibody; BMP6 antibody of the invention
Regarding B1, in test [1], the Kd is at most 0.24 nM and the t1/2 is at least 1160 min. Also, the IC50 in test [2] was 1.61 nM. The molecule further yielded a binding response in the test with Human BMP3b of 0.19 nm.

B2: H4H17855P (antibody, V domains shown)
VH: B1 VH with N30S, N31S, D56G, S57R, A61T, I70M, S100P, R101Y, S102N
VL: EIVLTQSPGTLSLSPGEGATLSCRASQSVSSSYLAWYQQKPGQAPRLLIYGASSRATGIPDRFSGSGSGTDFTLTISRLEPEDFVVYYCQHFGGTPFTFGGGTKVEIK
notes: as for B1
On to B2, for which, in the test with Human GDF3, the binding response was 0.03 nm.
